Laboratory results published in the supplement of paper PMC7877785.
± gives the uncertainty stated by the source.

Assay: self-splicing fitness, log relative to wild type (ln ratio); higher = more splicing; Tetrahymena group I intron in knt gene, E. coli kanamycin selection, DiMSum; sequences stand for … in CUCUCU…GGAGGGAAAAGUUAUCAGGCAUGCACCUGGUAGCUAGUCUUUAAACCAAUAGAUUGCAUCGGUUUAAAAGGCAAGACCGUCAAAUUGCGGGAAAGGGGUCAACAGCCGUUCAGUACCAAGUCUCAGGGGAAACUUUGAGAUGGCCUUGCAAAGGGUAUGGUAAUAAGCUGACGGACAUGGUCCUAACCACGCAGCCAAGUCCUAAGUCAACAGAUCUUCUGUUGAUAUGGAUGCAGUUCACAGACUAAAUGUCGGUCGGGGAAGAUGUAUUCUUCUCAUAAGAUAUAGUCGGACCUCUCCUUAAUGGGAGCUAGCGGAUGAAGUGAUGCAACACUGGAGCCGCUGGGAACUAAUUUGUAUGCGAAAGUAUAUUGAUUAGUUUUGGAGUACUCGUGGUCG
Outline: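 A randomised library covering all eight P1ex-region intron nucleotides was built with the intron in the knt kanamycin-resistance gene on pET-22b(+) and held in E. coli BL21(DE3). Cells were grown overnight at 37°C or 30°C on LB agar, with or without 25 μg/mL kanamycin, plus 100 μg/mL carbenicillin, 50 μM IPTG and 0.2% rhamnose, and pooled colonies were amplicon-sequenced on an Illumina HiSeq 2500. DiMSum fitness is the error-weighted combination of wild-type-normalised replicate fold changes, kanamycin versus none.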

Row | Sequence | self-splicing fitness (ln) (30 °C) | self-splicing fitness (ln) (37 °C)
1 | AGGUAGCAAUAUUACGUCGG | -2.803 ± 0.022 | -1.63 ± 0.036
2 | ACCAAGCAAUAUUACGUGUC | -2.94 ± 0.11 | -3.34 ± 0.18
3 | ACGAAGCAAUAUUACGGACU | 0.0455 ± 0.045 | 0.53 ± 0.065
4 | AUACAGCAAUAUUACGUCAU | -1.53 ± 0.084 | -0.888 ± 0.088
5 | UCCGAGCAAUAUUACGUGUC |  | -2.64 ± 0.34
6 | AAACAGCAAUAUUACGGAAG | -3.7 ± 0.2 | -1.8 ± 0.17
7 | CGCUAGCAAUAUUACGCAUC | -3.88 ± 0.36 | -2.66 ± 0.29
8 | UCCUAGCAAUAUUACGAUUU | -2.16 ± 0.16 | -1.36 ± 0.21
9 | UCUCAGCAAUAUUACGGAAU | -3.04 ± 0.26 | -1.85 ± 0.21
10 | AGUAAGCAAUAUUACGAAAG | -4.26 ± 0.37 | 
11 | UAUUAGCAAUAUUACGGGAG | -3.18 ± 0.16 | -2.16 ± 0.12
12 | CCAGAGCAAUAUUACGUUGG | -3.93 ± 0.23 | -2.57 ± 0.23
13 | AGCCAGCAAUAUUACGUCGG | -3.89 ± 0.3 | -2.97 ± 0.32
14 | CUCUAGCAAUAUUACGAACC | -3.06 ± 0.37 | 
15 | UCCAAGCAAUAUUACGCUUG | -3.72 ± 0.17 | -2.11 ± 0.28
16 | CGAGAGCAAUAUUACGGCUG | -1.18 ± 0.13 | -1.14 ± 0.17
17 | AGCGAGCAAUAUUACGGGGA | -2.64 ± 0.35 | -1.22 ± 0.22
18 | AAAUAGCAAUAUUACGUGGG | -3.39 ± 0.2 | -2.49 ± 0.2
19 | CGUGAGCAAUAUUACGACUG | -0.73 ± 0.12 | -0.0318 ± 0.16
20 | UUGUAGCAAUAUUACGGACG | -1.33 ± 0.19 | -0.721 ± 0.19
21 | GGUCAGCAAUAUUACGAGAA | -1.23 ± 0.47 | -2.01 ± 0.38
22 | GAGGAGCAAUAUUACGGAUC | -1.61 ± 0.16 | -0.13 ± 0.17
23 | CCAGAGCAAUAUUACGAAUU | -4 ± 0.28 | -3.11 ± 0.43
24 | AAGGAGCAAUAUUACGUGAA | -2.22 ± 0.34 | 
25 | UCCGAGCAAUAUUACGGGUG | -1.97 ± 0.089 | -1.66 ± 0.099

Row | Sequence | self-splicing fitness (ln) (30 °C) | self-splicing fitness (ln) (37 °C)
26 | AGGUAGCAAUAUUACGUACU | -0.29 ± 0.014 | -0.101 ± 0.034
27 | CCAGAGCAAUAUUACGCGGG | -3.33 ± 0.44 | 
28 | AACAAGCAAUAUUACGGCGA | -0.0322 ± 0.064 | -0.329 ± 0.071
29 | AUUCAGCAAUAUUACGGUGU | -0.571 ± 0.042 | -0.106 ± 0.055
30 | AUUAAGCAAUAUUACGUCGA | -1 ± 0.1 | -0.855 ± 0.13
31 | UGUAAGCAAUAUUACGGGCA | -0.98 ± 0.09 | 0.521 ± 0.1
32 | UGAAAGCAAUAUUACGUAAA | -1.75 ± 0.082 | -0.9 ± 0.098
33 | AAGGAGCAAUAUUACGUUGC | -4.58 ± 0.42 | -1.71 ± 0.23
34 | CCCUAGCAAUAUUACGGCAU | -3.41 ± 0.24 | -1.94 ± 0.17
35 | CAUUAGCAAUAUUACGAGGG | -3.1 ± 0.18 | -2 ± 0.21
36 | ACAGAGCAAUAUUACGACCU | -2.8 ± 0.19 | -0.728 ± 0.16
37 | CCGAAGCAAUAUUACGUUCC | -3.94 ± 0.37 | -2.81 ± 0.37
38 | AAAGAGCAAUAUUACGAACC |  | -1.39 ± 0.46
39 | GACGAGCAAUAUUACGGGGC | -2.83 ± 0.13 | -2.25 ± 0.16
40 | GCAGAGCAAUAUUACGUAUU | -3.82 ± 0.23 | -1.9 ± 0.16
41 | AUCGAGCAAUAUUACGGCCG | -1.92 ± 0.22 | -0.981 ± 0.2
42 | GCGGAGCAAUAUUACGCAGC | -1.9 ± 0.35 | -2.35 ± 0.34
43 | AUUAAGCAAUAUUACGCUGC | -3.87 ± 0.27 | -1.98 ± 0.22
44 | ACACAGCAAUAUUACGCUAG | -1.41 ± 0.075 | -1.06 ± 0.092
45 | UAGAAGCAAUAUUACGUCAU | -2.84 ± 0.2 | -1.99 ± 0.15
46 | ACUCAGCAAUAUUACGAUAU | -1.1 ± 0.081 | -0.759 ± 0.11
47 | UGGCAGCAAUAUUACGCGUU | -1.6 ± 0.077 | -0.555 ± 0.081
48 | GUAAAGCAAUAUUACGGGUA | -1.02 ± 0.078 | -0.464 ± 0.085
49 | UCACAGCAAUAUUACGUCGC | -2.99 ± 0.19 | -2.13 ± 0.19
